Assay results from patent publication US20250340661A1, “ANTI CD40 ANTIBODY, ANTIGEN BINDING FRAGMENT AND MEDICAL USE THEREOF” (Jiangsu Hengrui Pharmaceuticals Co., Ltd., priority 2021, published 2025).

Assays:
[1] = molecular target: T1, CD40 (Homo sapiens, UniProt P25942); assay: FACS binding of human-rabbit chimeric anti-CD40 antibodies to Raji cells
Procedure: Raji cells are of a tumor cell line that overexpresses human CD40. 2E5 Raji cells were inoculated onto a 96-well plate. 100 μL of a test antibody was added, with the highest final concentration of 100 nM. The antibody was 5-fold diluted to 8 concentrations. The plate was incubated at 4° C. for 1 h. The plate was washed once with wash buffer, and an AF647-conjugated anti-human IgG antibody (Jackson Immunoresearch Laborotories, Cat. #205-609-088) was added at a dilution ratio of 1:500. The plate was incubated at 4° C. for 30 min. The plate was washed once with wash buffer, and fluorescence intensity was measured using a flow cytometer. The binding EC50 values of the anti-CD40 antibodies for CD40 were calculated. The anti-CD40 antagonistic antibody CFZ533 (i.e., iscalimab, Nova) was used as a positive control, and the heavy and light chain variable region sequences were derived from sequence 5 and sequence 2 of U.S. Pat. No. 8,277,810B, respectively.

[2] = molecular target: T2, Raji cell surface human CD40 (Homo sapiens, UniProt P25942); assay: FACS binding of humanized anti-CD40 antibodies to Raji cells
T2 construct: Raji cells highly express human CD40 on the cell surface; endogenous in cells; host or cells: Raji cells (Burkitt lymphoma line)
Procedure: Raji cells highly express human CD40 on the cell surface and thus can be used to detect the binding of CD40 antagonistic antibodies to the cell surface human CD40.
Raji cells were plated at 1.5E5/well, and various concentrations of CD40 antagonistic antibodies were added. The plate was incubated at 4° C. for 1 h. After two washes with FACS buffer (PBS+2% FBS), a secondary antibody (Alexa Flour488 conjugated anti-human IgG (H+L) antibody) was added, and the plate was incubated at 4° C. for 0.5 h.
After two washes with FACS buffer, the fluorescence intensity on the cell surface was measured by flow cytometry (BD FACS Celesta).

[3] = tested on: human CD40 transgenic mice; assay: Mouse T cell-dependent humoral immune response (TDAR) model; type: in vivo; details: 0.3 mpk BIW ip (IgG1 control 1 mg/kg per Table 15); serum ELISA
Procedure: On day 0 of the experiment, one of the mice in each group was subjected to blood collection followed by intraperitoneal injection. On day 1, each mouse was intraperitoneally injected with 50 μg of KLH (KLH:complete Freund's adjuvant (CFA)=1:1 emulsified immune complex) for immunization. On day 15 of the experiment, each mouse was intraperitoneally injected with 50 μg of KLH (KLH:incomplete Freund's adjuvant (IFA)=1:1 emulsified immune complex) for a second immunization. Each group was intraperitoneally injected twice a week, and blood samples of about 150 μL were collected from the orbital venous plexus on days 7, 14, 21, and 28. Whole blood was left to stand at room temperature for 1-4 h and centrifuged at 7000 rpm at 4° C. for 10 min to separate serum, and the serum was stored at −80° C. before use.
Mouse serum was separated weekly and assayed by ELISA for the anti-KLH specific IgG level.

[4] = molecular target: T1, CD40; assay: HEK-Blue CD40L reporter gene cell activity of humanized anti-CD40 antibodies; type: cell-based; design: host or cells: HEK-Blue CD40L cells; details: read-out: IC50 inhibition of CD40 reporter gene cell activity
Procedure: HEK-Blue CD40L cells were purchased from Invivogen (Cat. #hkb-cd40). The cells were stably transfected with the human CD40 gene and the NF-kB-mediated SEAP genome. The activation level of the CD40 signaling pathway can be characterized by measuring the amount of secreted SEAP in the supernatant using QUANTI-Blue, the substrate of SEAP. In the assays, the inhibitory effects of the CD40 antagonistic antibodies on the CD40L-induced HEK-Blue CD40L cell activation were measured, and the in vitro cell activity of the CD40 antagonistic antibodies was assessed based on IC50. HEK-Blue CD40L cells were cultured in a DMEM medium containing 10% FBS, 100 μg/mL Normocin, 100 μg/mL Zeocin and 30 μg/mL Blasticidin, with 2-3 passages a week. HEK-Blue CD40L cells were plated at 5E4/well into a 96-well cell culture plate (the medium was DMEM, 10% FBS, 100 μg/mL Normocin) and incubated overnight. […] CD40L-his (R&D, 2706-CL-025) and anti-His antibody (R&D, MAB050-500) were added, and the plate was incubated overnight. After cell centrifugation, 20 μL of the cell supernatant was transferred to a new 96-well white plate, and 180 μL of QUANTI-Blue substrate solution was added. The plate was incubated in the dark for 15 min. The absorbance at 620 nm was measured with an Envision microplate reader, and IC50 values were calculated and used to assess the in vitro cell activity of the CD40 antagonistic antibodies.

[5] = molecular target: T1, CD40; assay: B cell activation assay system (human PBMCs, CD40L stimulation); type: cell-based; design: endogenous in cells; host or cells: human PBMCs (CD19+ B cells read out); details: CD40L-his + anti-His overnight
Procedure: CD40 is highly expressed in B cells, and CD40L, upon binding to CD40, can induce B cell activation and up-regulate the expression of a series of activation markers. CD40 antagonistic antibodies block the binding of CD40L to CD40, thereby eliminating the immune activation process of B cells.
Human PBMCs were plated at 2E5/well, 50 μL/well into a 96-well cell culture plate (the medium was RPMI-1640, 10% FBS, 1% penicillin-streptomycin). Serially diluted test antibodies were added at 50 μL/well, and the cells were co-incubated at 37° C. in 5% CO2 for 0.5 h. CD40L-his and an anti-His antibody were added to each well for overnight stimulation. The following day, the plate was centrifuged, the supernatant was removed, and the cells were washed twice with FACS buffer and stained at room temperature for 15 min with 100 μL of Fixable viability dye EF780 (Invitrogen, 65086514) diluted at 1:1000. The cells were washed twice and then blocked at room temperature for 10 min with 100 μL of human Fc blocker (BD, 564220) diluted at 1:200. After centrifugation, the cells were incubated at 4° C. for 0.5 h with flow cytometry antibodies (PerCP/Cyanine5.5 anti-human CD19 (Biolegend, 302230), and APC anti-human CD69 (Biolegend, 310910)) diluted at 1:200. After centrifugation, the supernatant was removed, the cells were washed twice with FACS buffer and then resuspended in 200 μL of PBS, and the fluorescence intensity on the cell surface was measured by flow cytometry (BD FACS Celesta).
With reference to the method in Example 10, the inhibitory activity of the anti-CD40 antibodies 2F12-L4H2-AAYTE and 9E6-L4H2-AAYTE, which carry the AAYTE mutation in the Fc, in the B cell activation assay system was measured.

T1 sequence (P25942 21-277): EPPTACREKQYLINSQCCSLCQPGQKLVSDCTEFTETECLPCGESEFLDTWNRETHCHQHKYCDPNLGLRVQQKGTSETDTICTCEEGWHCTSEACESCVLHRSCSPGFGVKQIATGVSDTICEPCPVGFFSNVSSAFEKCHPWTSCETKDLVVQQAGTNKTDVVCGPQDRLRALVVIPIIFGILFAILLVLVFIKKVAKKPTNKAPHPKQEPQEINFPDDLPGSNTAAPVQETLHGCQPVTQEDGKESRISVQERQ
T2 sequence (P25942 21-277): as above

How did the EC50 [1] turn out when “CFZ533: anti-CD40 antagonistic antibody (iscalimab), positive control; variable regions from U.S. Pat. No. 8,277,810B [reference compound]” was run?
The EC50 was 2.41 nM.

What about the EC50 [2] of the same substance?
Its EC50 is 1.01 nM.

And the “anti-KLH specific IgG level, Day 7” value [3]?
Its value is 0.04 ± 0.01.

And the “anti-KLH specific IgG level, Day 14” value [3]?
Its value is 30.9 ± 10.8.

What about the “anti-KLH specific IgG level, Day 21” value [3] of the same substance?
The value was 845 ± 423.

And the “anti-KLH specific IgG level, Day 28” value [3]?
The value was 3043 ± 1600.

What about the IC50 ([4]; Assay 1) of the same substance?
Its IC50 is 0.36 nM.

What about the IC50 ([4]; Assay 2) of the same substance?
The IC50 was 0.35 nM.

What about the “CD19+CD69+ % Maximum inhibition rate” value [5] of the same substance?
The value was 95%.

What about the “CD19+CD69+ MFI Maximum inhibition rate” value [5] of the same substance?
Its value is 110%.

What about the IC50 ([5]; read-out: CD19+CD69+ % IC50) of the same substance?
The IC50 was 0.14 nM.

And the IC50 ([5]; read-out: CD19+CD69+ MFI IC50)?
Its IC50 is 0.07 nM.
